From article PMC5154385 (ACS infectious diseases, 2015)

Tests used:
Eis_Mab2 = Eis_Mab2 (Mycobacteroides abscessus, UniProt B1MKV6); experiment: DTNB; type: biochemical
[1] = test system: NC[C@@H]1O[C@H](O[C@H]2[C@@H](O)[C@H](O[C@@H]3[C@@H](O)[C@H](N)C[C@H](N)[C@H]3O[C@H]3O[C@H](CO)[C@@H](O)[C@H](O)[C@H]3N)O[C@@H]2CO)[C@H](N)[C@@H](O)[C@@H]1O; experiment: purified protein; details: co-substrate AcCoA fixed (printed 0.5 μM), pH 8.0, 25 °C
[2] = test system: NC[C@H]1O[C@H](O[C@H]2[C@H](O)[C@@H](O[C@H]3O[C@H](CO)[C@@H](O)[C@H](N)[C@H]3O)[C@H](N)C[C@@H]2N)[C@H](O)[C@@H](O)[C@@H]1O; experiment: purified protein; details: co-substrate AcCoA fixed (printed 0.5 μM), pH 8.0, 25 °C

Compound	IC50 (Eis_Mab2)	Km [1]	kcat [1]	kcat/Km [1]	Km [2]	kcat [2]	kcat/Km [2]
[H]/N=C(\N/C(=N/[H])NCCCCCCNC(=N)NC(=N)Nc1ccc(Cl)cc1)Nc1ccc(Cl)cc1 [chlorhexidine]	4.4 ± 0.9 µM						
Eis_Mab2 (Mycobacteroides abscessus ATCC 19977)		144 ± 14 µM	2.83 ± 0.07 s⁻¹	19700 ± 1970 M⁻¹ s⁻¹	125 ± 27 µM	0.124 ± 0.007 s⁻¹	992 ± 377 M⁻¹ s⁻¹
